Assay results from patent US20250084158A1 (ABL BIO, published 2025).

How the values were obtained:
human CLL-1 on cells [1] = biological target: T1, human CLL-1 on cells (human, UniProt Q5QGZ9 1-265); experiment: FACS (PE-anti-human IgG), U937 cells
T1 construct: whole, on cells; Overexpressed in HEK293E cells or carried by CLL1-expressing leukemic cell lines; the cell line is named under assay or readout; also called CLEC12A; huCLL1_293E
T1 sequence (looked up): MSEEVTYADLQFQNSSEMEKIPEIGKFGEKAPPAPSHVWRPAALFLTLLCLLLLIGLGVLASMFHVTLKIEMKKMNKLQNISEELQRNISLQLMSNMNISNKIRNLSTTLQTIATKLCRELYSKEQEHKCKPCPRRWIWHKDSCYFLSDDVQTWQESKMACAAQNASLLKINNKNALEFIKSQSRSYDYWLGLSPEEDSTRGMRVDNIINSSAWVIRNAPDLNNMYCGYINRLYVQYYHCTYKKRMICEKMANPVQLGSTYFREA
Method: (§1) To evaluate the tumor antigen binding property of the bispecific antibody of Example 3, the binding ability of CLL1 targeting portions of 33C2/CD3-R2 and 33C2/CD3-R3 to CLL1 expressed in mammalian cells were analyzed by using FACS.
(§2) Briefly, CLL1 positive cells (U937 and HL60) were incubated with 33C2/CD3-R2 and 33C2/CD3-R3 antibodies. After washing with a FACS buffer (1% BSA in PBS), the PE-anti-human IgG antibodies were added to each well and incubated at 4° C. for 60 min. The MFI (Median Fluorescence Intensity) of PE (phycoerythrin) was evaluated by FACS Calibur. BsAb mock/CD3, which has an anti-CD3 antigen-binding fragment at one arm, and no antigen-binding fragment at another arm, was used as a control group.

human CLL-1 on cells [2] = biological target: T1, human CLL-1 on cells; experiment: cell-based or functional assay
human CLL-1 on cells [3] = biological target: T1, human CLL-1 on cells; experiment: FACS (PE-anti-human IgG), HL-60 cells
Method: as §1, §2

human CLL-1 on cells [4] = biological target: T1, human CLL-1 on cells; experiment: cell-based or functional assay; remark: listed apart in the source
human CLL-1 on cells [5] = biological target: T1, human CLL-1 on cells; experiment: cell-based or functional assay; remark: listed apart in the source
human CLL-1 on cells [6] = biological target: T1, human CLL-1 on cells; experiment: cell-based or functional assay; remark: listed apart in the source

B1: 33C2/CD3-R2 (bispecific antibody, human IgG1, kappa, N297A)
heavy 1: not shown
heavy 2: QVQLVQSGAEVKKPGASVKVSCKASGYSFTGYAMNWVRQAPGQRLEWIGLINPYNGGAMYNQKFKGRATLTVDTSASTAYMELSSLRSEDTAVYYCARDYRYEGHLDYWGQGTLVTVSSASTKGPSVFPLAPSSKSTSGGTAALGCLVKDYFPEPVTVSWNSGALTSGVHTFPAVLQSSGLYSLSSVVTVPSSSLGTQTYICNVNHKPSNTKVDKKVEPKSCDKTHTCPPCPAPELLGGPSVFLFPPKPKDTLMISRTPEVTCVVVDVSHEDPEVKFNWYVDGVEVHNAKTKPREEQYASTYRVVSVLTVLHQDWLNGKEYKCKVSNKALPAPIEKTISKAKGQPREPQVCTLPPSREEMTKNQVSLSCAVKGFYPSDIAVEWESNGQPENNYKTTPPVLDSDGSFFLVSKLTVDKSRWQQGNVFSCSVMHEALHNHYTQKSLSLSPGK
light 1: EIVLTQSPATLSLSPGERATLSCSATSSVSYMHWYQQKPGQAPRRWIYDTSKLASGIPARFSGSGSGTSYTLTISSLEPEDFAVYYCQQWSSDSPTFGQGTKLEIKRTVAAPSVFIFPPSDEQLKSGTASVVCLLNNFYPREAKVQWKVDNALQSGNSQESVTEQDSKDSTYSLSSTLTLSKADYEKHKVYACEVTHQGLSSPVTKSFNRGEC
light 2: DIVMTQSPDSLAVSLGERATINCKSSQSLLNSRTRKNYLAWYQQKPGQPPKLLIYWASTRQSGVPDRFSGSGSGTDFTLTISSLQAEDVAVYYCTQSHTLRTFGGGTKVEIKPDIQNPDPAVYQLRDSKSSDKSVCLFTDFDSQTQVSQSKDSDVYITDKCVLDMRSMDFKSNSAVAWSQKSDFACANAFQNSIIPEDTFFPSPESS
notes: WuXiBody format, 2+1: Heavy Chain-1 = CLL1 Fab heavy, linker, CD3 heavy (TCR constant region), Fc knob; Heavy Chain-2 = CLL1 Fab heavy, Fc hole; Two CLL1 light chains follow from the two CLL1 Fab heavy parts; also called anti-CLL-1/anti-CD3 bispecific antibody with (G4S)2 linker
EC50 (human CLL-1 on cells [1]): 230 pM
T-cell activation (NFAT reporter effector cells) with HL-60, EC50 (human CLL-1 on cells [2]): 30 pM
T-cell activation (NFAT reporter effector cells) with U937, EC50 (human CLL-1 on cells [2]): 16 pM
EC50 (human CLL-1 on cells [3]): 90 pM
specific lysis of HL-60, PBMC donor ABL06, EC50 (human CLL-1 on cells [4]): 4.42 pM
specific lysis of HL-60, PBMC donor ABL09, EC50 (human CLL-1 on cells [4]): 1.27 pM
specific lysis of HL-60, PBMC donor ABL10, EC50 (human CLL-1 on cells [4]): 0.86 pM
specific lysis of HL-60, PBMC donor ABL15, EC50 (human CLL-1 on cells [4]): 3.16 pM
specific lysis of HL-60, PBMC donor ABL16, EC50 (human CLL-1 on cells [4]): 5.14 pM
specific lysis of HL-60, PBMC donor ABL17, EC50 (human CLL-1 on cells [4]): 5.85 pM
specific lysis of HL-60, PBMC donor ABL18, EC50 (human CLL-1 on cells [4]): 3.97 pM
specific lysis of HL-60, PBMC donor ABL19, EC50 (human CLL-1 on cells [4]): 9.09 pM
specific lysis of U937, PBMC donor ABL06, EC50 (human CLL-1 on cells [4]): 0.54 pM
specific lysis of U937, PBMC donor ABL09, EC50 (human CLL-1 on cells [4]): 0.13 pM
specific lysis of U937, PBMC donor ABL10, EC50 (human CLL-1 on cells [4]): 0.05 pM
specific lysis of U937, PBMC donor ABL15, EC50 (human CLL-1 on cells [4]): 0.16 pM
specific lysis of U937, PBMC donor ABL16, EC50 (human CLL-1 on cells [4]): 0.05 pM
specific lysis of U937, PBMC donor ABL17, EC50 (human CLL-1 on cells [4]): 1.1 pM
specific lysis of U937, PBMC donor ABL18, EC50 (human CLL-1 on cells [4]): 1.63 pM
specific lysis of U937, PBMC donor ABL19, EC50 (human CLL-1 on cells [4]): 0.32 pM
CD25 on CD4 T cells, U937 targets, EC50 (human CLL-1 on cells [5]): 0.39 pM
CD25 on CD8 T cells, U937 targets, EC50 (human CLL-1 on cells [5]): 0.3 pM
CD69 on CD4 T cells, U937 targets, EC50 (human CLL-1 on cells [5]): 0.21 pM
CD69 on CD8 T cells, U937 targets, EC50 (human CLL-1 on cells [5]): 0.14 pM
U937 cell lysis, EC50 (human CLL-1 on cells [5]): 0.05 pM
CD25 on CD4 T cells, HL60 targets, EC50 (human CLL-1 on cells [6]): 1.15 pM
CD25 on CD8 T cells, HL60 targets, EC50 (human CLL-1 on cells [6]): 1.09 pM
CD69 on CD4 T cells, HL60 targets, EC50 (human CLL-1 on cells [6]): 0.54 pM
CD69 on CD8 T cells, HL60 targets, EC50 (human CLL-1 on cells [6]): 0.36 pM
U937 cell lysis (so in the source); Table 21 is the HL60 table by paragraph 356), EC50 (human CLL-1 on cells [6]): 0.86 pM
